Molecular target: ABD-AS25 (albumin binding domain fused to monobody AS25; ABD-…-AS25-Cys)
Assay: ITC

| Kd | stoichiometry N | Substance |
| --- | --- | --- |
| 42.4 nM | 1 | Bcr-Abl SH2 domain (from UniProt P00519 127-217) (domain or fragment) |
| 5.11 nM | – | Human Serum Albumin (from UniProt P02768 25-609) (natural protein) |

Reference: paper PMC7615827
